Data set [1] has as its target T1, TLR3 ectodomain Mut10 (mouse, UniProt Q99MB1 26-705, S116E;Q118E;K138E;K140E;N142E;K145E;N146E).
T1 sequence: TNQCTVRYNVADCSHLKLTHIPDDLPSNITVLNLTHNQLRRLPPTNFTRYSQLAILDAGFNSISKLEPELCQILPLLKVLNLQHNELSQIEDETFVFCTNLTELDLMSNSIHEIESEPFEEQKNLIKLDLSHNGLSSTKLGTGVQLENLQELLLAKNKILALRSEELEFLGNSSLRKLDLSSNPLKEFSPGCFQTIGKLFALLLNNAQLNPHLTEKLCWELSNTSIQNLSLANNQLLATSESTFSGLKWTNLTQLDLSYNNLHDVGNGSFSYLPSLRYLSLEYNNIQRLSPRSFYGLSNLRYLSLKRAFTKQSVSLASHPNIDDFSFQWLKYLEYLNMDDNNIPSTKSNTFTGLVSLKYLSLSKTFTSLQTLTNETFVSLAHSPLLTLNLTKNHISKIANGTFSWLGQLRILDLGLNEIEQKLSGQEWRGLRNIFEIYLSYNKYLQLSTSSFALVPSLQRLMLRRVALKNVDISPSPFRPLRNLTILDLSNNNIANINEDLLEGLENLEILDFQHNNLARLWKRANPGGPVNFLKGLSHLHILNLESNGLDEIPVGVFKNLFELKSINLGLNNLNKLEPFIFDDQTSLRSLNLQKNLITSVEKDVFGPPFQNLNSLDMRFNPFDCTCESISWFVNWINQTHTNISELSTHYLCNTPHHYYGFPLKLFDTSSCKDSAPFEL
Description: cryo-EM 3D reconstruction; dimer identical to WT; Protein in 25 mM MES-NaOH pH 5.3, 0.2-0.3 M NaCl (purification buffer); complex formation conditions not in the material. Particulars: protein: recombinant; tags: C-terminal FLAG-His6; chain copies: 2; blunt.

In data set [2] the target is T2, TLR3 ectodomain WT (mouse, UniProt Q99MB1 26-705).
T2 sequence: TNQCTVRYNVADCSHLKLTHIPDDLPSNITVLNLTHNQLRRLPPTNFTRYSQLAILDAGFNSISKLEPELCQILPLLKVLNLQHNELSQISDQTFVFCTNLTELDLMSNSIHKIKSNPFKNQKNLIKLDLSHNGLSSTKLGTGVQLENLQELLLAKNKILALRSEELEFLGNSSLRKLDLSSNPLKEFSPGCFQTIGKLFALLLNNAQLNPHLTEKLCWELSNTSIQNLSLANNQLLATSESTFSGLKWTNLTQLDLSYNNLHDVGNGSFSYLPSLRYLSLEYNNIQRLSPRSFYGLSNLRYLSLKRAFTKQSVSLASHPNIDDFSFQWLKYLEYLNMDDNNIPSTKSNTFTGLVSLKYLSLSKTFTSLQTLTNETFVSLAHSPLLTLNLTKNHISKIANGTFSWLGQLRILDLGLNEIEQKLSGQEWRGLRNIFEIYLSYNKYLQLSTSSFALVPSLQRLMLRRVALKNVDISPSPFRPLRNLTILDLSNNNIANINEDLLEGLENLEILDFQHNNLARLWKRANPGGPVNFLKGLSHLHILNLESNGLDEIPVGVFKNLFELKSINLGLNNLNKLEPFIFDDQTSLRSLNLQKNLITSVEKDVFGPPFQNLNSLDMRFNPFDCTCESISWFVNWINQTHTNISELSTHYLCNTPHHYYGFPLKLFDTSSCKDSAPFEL
Description: cryo-EM structure; two TLR3 dimers laterally aligned along dsRNA; Protein in 25 mM MES-NaOH pH 5.3, 0.2-0.3 M NaCl (purification buffer); complex formation conditions not in the material. Particulars: protein: recombinant; tags: C-terminal FLAG-His6; chain copies: 4; blunt.

This is an account of results in publication PMC9834221, “TLR3 forms a laterally aligned multimeric complex along double-stranded RNA for efficient signal transduction”.

B1: 46 bp dsRNA (dsRNA)
RNA 1: AUUCUGCGGAUUAUUUGGCAAAGGAAGCAUUGACACAUGCGCCAAU
RNA 2: AUUGGCGCAUGUGUCAAUGCUUCCUUUGCCAAAUAAUCCGCAGAAU
modifications: 2'-O-methyl at strand 1 positions 10-15 and 36-41 (lower case); complement modifications not stated
As to B1, in data set [1], the binding result is listed as “binds”.

B2: 90 bp dsRNA (dsRNA)
RNA 1: AUUCUGCGGAUUAUUUGGCAAAGGAAGCAUUGACACAUGCGCCAAUUCUGCGGAUUAUUUGGCAAAGGAAGCAUUGACACAUGCGCCAAU
RNA 2: AUUGGCGCAUGUGUCAAUGCUUCCUUUGCCAAAUAAUCCGCAGAAUUGGCGCAUGUGUCAAUGCUUCCUUUGCCAAAUAAUCCGCAGAAU
modifications: 2'-O-methyl at strand 1 positions 10-15 and 80-85 (lower case); complement modifications not stated
As to B2, in data set [2], the binding result is “binds”.
